Molecular target: Ubc9 (human, UniProt P63279 1-158)
Test: pull-down

Sequence of Ubc9 (P63279 whole entry): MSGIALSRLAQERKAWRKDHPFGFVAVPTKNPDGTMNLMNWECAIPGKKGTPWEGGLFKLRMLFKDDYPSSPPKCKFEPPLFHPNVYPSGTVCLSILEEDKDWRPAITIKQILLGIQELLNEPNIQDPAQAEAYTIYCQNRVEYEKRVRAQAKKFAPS

| binding result | Binder |
| --- | --- |
| binds | IR1-M_ΔSIM domain of RanBP2 (domain or fragment, UniProt P49792 2637-2710, looked up) ELTPTAEQKALATKLKLPPTFFCYKNRPDYVSEEEEDDEDFETAVKKLNGKLYLDGSEKCRPLEENTADNEKEC |
| binds | IR1-M domain (internal repeat 1 and M) of RanBP2 (domain or fragment, UniProt P49792 2629-2710, looked up) DDDVLIVYELTPTAEQKALATKLKLPPTFFCYKNRPDYVSEEEEDDEDFETAVKKLNGKLYLDGSEKCRPLEENTADNEKEC |
